From patent US12102672B2, “Immunogenic sequences from a phage tail length tape measure protein, bacteria expressing the same and their use in treating a cancer” (INSTITUT GUSTAVE ROUSSY, priority 2017, dated 2024)

Columns and labels:
[1] = target: HLA-A*0201 with TMP peptide […] on peptide-pulsed autologous cells (human; Enterococcus hirae 13144 (prophage 2, TMP))
[2] = target: HLA-A*0201 with TMP peptide … on peptide-pulsed autologous cells (human; Enterococcus hirae 13144 (prophage 2, TMP))
[3] = system: prophage 1 and 2 of EH13144; details: mitomycin C 1 μg/ml; 37° C. and 42° C.; without capside disruption
Excerpt: Protocol for phage excision by mitomycin C.
PCR was run to detect specific sequences of the prophage 1 or 2.

Compound	IFNγ ELISPOT after in vitro stimulation [1]	IFNγ ELISPOT after in vitro stimulation [2]	prophage 1 and 2 excision from EH13144 [3]
CD8+ T cells from PBMC of six HLA-A2+ healthy volunteers (cells without a defined receptor)	50 % of HV	50 % of HV	
CO[C@@]12[C@H](COC(N)=O)C3=C(C(=O)C(C)=C(N)C3=O)N1C[C@@H]1N[C@@H]12 [mitomycin C]			prophage 1 and 2 excision
